Earlier results in article PMC2715106.

Assays:
[1] = biological target: core RNA polymerase (Escherichia coli) (UniProt P0A7Z4); assay: in vitro transcription
[2] = biological target: core RNA polymerase (Escherichia coli) (UniProt P0A7Z4); assay: SEC

Sequence of sigma32 (P0AGB3 whole entry): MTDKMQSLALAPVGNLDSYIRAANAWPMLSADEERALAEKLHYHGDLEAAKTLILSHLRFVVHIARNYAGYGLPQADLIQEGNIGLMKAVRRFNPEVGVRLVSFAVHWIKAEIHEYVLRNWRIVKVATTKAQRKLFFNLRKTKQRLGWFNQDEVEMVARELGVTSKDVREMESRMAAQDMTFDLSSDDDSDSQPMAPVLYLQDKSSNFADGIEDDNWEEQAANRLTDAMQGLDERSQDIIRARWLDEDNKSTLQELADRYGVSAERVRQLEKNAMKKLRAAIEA

## sigma32 (from UniProt P0AGB3)
[1]
  Kd: 1 nM
[2]
  Kd: 1.24 nM
